Experimental data taken from US20210032330A1 (PHANES THERAPEUTICS, published 2021).

B1: 5-C11-A (antibody, V domains shown)
VH: EVQLVESGGGLVKPGGSLKLSCAASGFTFSDFYMYWVRQTPEKRLEWVATISDGGSYTYYPDSVKGRFTISRDNAKNNLYLQMSSLKSEDTAMYYCASGYYYGSDYVMDYWGQGTSVTVSS
VL: DIVMSQSPSSLAVSAGEKVTMSCKSSQSLLNSRTRKNYLAWYQQKPGQSPKLLIYWASTRESGVPDRFTGSGSGTDFTLTISSVQADDLAVYYCKQSYNLLTFGAGTKLELK
notes: also called anti-TIM-3 monoclonal antibody 5-C11-A
B2: 12-G18-A (antibody, V domains shown)
VH: DVQLQESGPGLVKPSQSLSLTCTVTGYSITSDYAWNWIRQFPGNKLEWMGYISYSGSTSYNPSLKSRISITRDTSKNQFFLQLNSVTIGDTATYYCASNYRYDYWFFGVWGAGTTVTVSS
VL: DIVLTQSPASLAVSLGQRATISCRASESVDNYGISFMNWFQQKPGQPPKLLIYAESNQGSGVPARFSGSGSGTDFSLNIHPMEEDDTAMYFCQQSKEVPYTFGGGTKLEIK
notes: also called anti-TIM-3 monoclonal antibody 12-G18-A
B3: 2-K2-A (antibody, V domains shown)
VH: QVQLQQSGAELAKPGASVKMSCKASGYTFTTYWMHWVKQRPGQGLEWIGYINPSTGYTEYNQKFKDKSTLTADKSSSTAYMQLSSLTSEDSAVYYCANDHEGGFAYWGQGTLVTVSA
VL: DILMTQSPSSMSVSLGDTVSITCHASQGISSNIGWLQQKPGKSFKGLIYHGTNLEDGVPSRFSGSGSGADYSLTISSLESEDFADYYCVQYAQFPFTFGSGTKLEIK
notes: also called anti-TIM-3 monoclonal antibody 2-K2-A
B4: 19-A14-A (antibody, V domains shown)
VH: DVQLQGSGPGLVKPSQSLSLTCTVTGYSITSDYAWNWIRQFPGNILEWMGYISYSGSTSYNPSLKSRISITRDTSKNQFFLQLNSVTTEDTATYYCARDGRYDYYAMDYWGQGTSVTVSS
VL: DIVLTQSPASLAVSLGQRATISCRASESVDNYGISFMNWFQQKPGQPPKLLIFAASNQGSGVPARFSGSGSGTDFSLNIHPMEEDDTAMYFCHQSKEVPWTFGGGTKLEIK
notes: also called anti-TIM-3 monoclonal antibody 19-A14-A

Legend:
[1] = biological target: T1, human T-cell immunoglobulin and mucin-domain containing molecule 3 (TIM-3) (human, UniProt Q8TDQ0 22-200, limits assumed); experiment: FACS on HEK293 cells transiently transfected with human TIM-3 (HuTIM-3 cells) against parental HEK293 cells (CTL cells), anti-mouse AlexaFluor488 secondary, MFI
T1 construct: also called Human TIM-3
Procedure: The binding of purified anti-TIM-3 mAbs to HEK293 cells transiently transfected with human TIM-3 (labeled as “HuTIM-3 cells”) or parental HEK293 cells (labeled as “CTL cells”) was tested by FACS at 3 different concentrations. An anti-mouse secondary Ab AlexaFluor488 was used for detection.
A human TIM-3-expressing plasmid was made and transiently transfected into HEK293T cells. After approximately 48 hours, cells were transferred to a 384-well V-bottom plate. Cells were washed with ice-cold FACS buffer (PBS supplemented with 1% BSA) and incubated with purified mAbs with gentle agitation at 4° C. for 45 minutes. The cells were washed with FACS buffer and incubated with an anti-mouse secondary Ab AlexaFluor488. The cells were washed and analyzed by FACS.

[2] = biological target: T1, human T-cell immunoglobulin and …; experiment: competition ELISA: pre-equilibrated mixture of mAb and human TIM3(ECD)-huFc on plate-coated phosphatidylserine (PtdSer, a lipid), anti-huFc-HRP detection, % inhibition
Procedure: ELISA plates were coated with PtdSer or PtdChol, washed and incubated with a pre-equilibrated mixture of purified antibodies at various concentrations and TIM3(ECD)-huFc. The plates were washed and then the signal was detected by incubation with HRP-coupled anti-huFc secondary antibody and then a HRP substrate. TIM-3 binding to PtdSer was used as 100% signal and TIM-3 binding to PtdChol as zero (background) to calculate percent of inhibition by a given mAb.
To determine the effect of anti-TIM-3 antibodies on the interaction of TIM-3 with phosphatidylserine (PtdSer), 384-well ELISA plates were coated with PtdSer or phosphatidylcholine (PtdChol) at room temperature. The wells were washed using PBS supplemented with 0.1% Tween-20 and then blocked using PBS supplemented with 2% bovine serum albumin (BSA). […] The plates were washed and then incubated with HRP-coupled anti-huFc secondary antibody. Plates were washed, incubated with an HRP substrate, and read using a POLARstar Omega Microplate (BMG LABTECH). The assay was performed in triplicate.

binding result [1]	IC50 (read off the curve) [2]	Binder
binds	–	B1
–	~6 nM	B2
binds	–	B3
–	~7 nM	B4
